Data reported in US20130345145A1, “ATIP3 AND BIOLOGICALLY ACTIVE FRAGMENTS THEREOF FOR USE IN THE TREATMENT OF CANCER” (INSTITUT NATIONAL DE LA SANTE ET DE LA RECHERCHE MEDICALE …, priority 2011, published 2013).
Where no end group is shown, it is not given here.

How the values were obtained:
MCF7 breast cancer cells = experiment: Xcelligence cell proliferation of stable MCF7 clones; type: cell-based; conditions: clone D2CC3, MCF7, FIG. 13
Description: Stable clones of MCF7 breast cancer cells expressing moderate levels of GFP-D2N (clones D2N6 and D2N8), GFP-D2C (clone D2C6 and a pool of positive cells) and GFP-D2CC (clone Cl3) have been selected in G418 (1 mg/ml)-containing medium for 4 weeks. Detectable expression of a single polypeptide of expected molecular weight in each case was confirmed by western blotting using anti-GFP antibodies.
Cell proliferation was measured using the Xcelligence technology (Roche). Briefly, cell clones were seeded at 15000 cells/well on 96 wells containing gold electrodes and cellular impedance was monitored in real-time for 40 hours.

microtubule cytoskeleton [1] = experiment: Immunofluorescence intracellular localization in RPE1 cells; type: cell-based, Human; conditions: RPE1 cells transfected 24 hrs, data not shown
Description: Immunofluorescence study was performed as example 2. Briefly, Human retinal pigment epithelial (RPE1) cells were transfected for 24 hrs with GFP-D2N, GFP-D2C or GFP-D2CC constructs prior to fixation in ice-cold methanol and incubation with anti-GFP antibodies as described (page 21, lines 1-9).

stabilized microtubules = experiment: Microtubule co-sedimentation assay; type: binding, human; conditions: MCF-7 lysate, taxol 20 μM, data not shown
Description: (§1) The pEGFP-ATIP3BD plasmid was transiently transfected into human breast cancer MCF-7 cells. Localization of GFP-ATIP3BD fusion protein at the microtubule cytoskeleton was examined by immunofluorescence, and its ability to interact with stabilized microtubules was determined by co-sedimentation assay.
For microtubule cosedimentation assay, human breast cancer MCF-7 cells were transiently transfected (24 h) with pEGFP-ATIP3BD plasmid and incubated for 20 min at 4° C. in PEM buffer (100 mM PIPES, pH 6.9, 1 mM MgSO4, 1 mM EGTA), scraped and sonicated prior to centrifugation at 15000 rpm for 10 min, 4° C. Clarified samples were incubated with taxol (20 μM) in the presence of GTP (1 mM) and DTT (1 mM) for 45 min at 37° C. and were spun at 70 000 g for 30 min at 30° C. through a cushion buffer containing 40% glycerol, 20 μM taxol and 1 mM GTP. The supernatant (S) and pellet (P) fractions were collected separately and subsequently immunoblotted with anti-GFP (Roche) and anti-alpha-tubulin (Sigma) antibodies.

[2] = tested on: human breast cancer MCF-7 cells; experiment: Clonogenicity experiments; type: cell-based; conditions: MCF-7 transfected with GFP fusion, G418 selection 3 weeks, compared to GFP
Description: For clonogenicity experiments, human breast cancer MCF-7 cells were transfected for 24 h with […] pEGFP-C1 vector or 2 μg of pEGFP-ATIP3BD cDNA. Similar transfection efficiency (50%) was assessed by FACS analysis and cell viability was verified using trypan blue. Cells were then plated at various dilutions in 12 well plates and transfectants were selected by adding geneticin (G418, 1 mg/ml, Gibco) in fresh medium twice a week for 3 weeks. Resistant colonies were stained with 0.5% crystal violet (Sigma) and counted.
The ability of human MCF7 breast cancer cells to form colonies following expression of minimal domains D2N and D2C was analyzed by clonogenicity experiments as described before (see example 2).

microtubule cytoskeleton [3] = experiment: Immunofluorescence localization in transfected MCF-7 cells; type: cell-based, human; conditions: MCF-7 cells transiently transfected 24 h, data not shown
Description: as §1
Exponentially growing human breast cancer MCF-7 cells plated on coverslips were transiently transfected (24 h) with pEGFP-ATIP3BD plasmid, and fixed in ice-cold methanol for 5 min prior to incubation for 1 h at room temperature with primary antibodies: anti-GFP monoclonal antibodies (Roche, diluted 1:200) and human anti-alpha-tubulin antibodies clone F2C (diluted 1:10), as described in Rodrigues-Ferreira et al. (PLoS One. 2009; 4(10):e7239 2009). After extensive washing, cells were incubated for 30 min at room temperature with appropriate secondary Cy-2-conjugated anti-human and/or Cy-3-conjugated anti-mouse antibodies (Jackson Laboratories, Interchim, France) diluted 1:500. Coverslips were mounted on glass slides using Glycergel Mounting Medium (DakoCytomation) and examined with a Leica TCS SP2 AOBS confocal microscope using appropriate filters. Image analysis was performed with NIH ImageJ software.

With “D2CC: domain of ATIP3BD, amino-acid positions 817-874 of SEQ ID NO: 1, 58 amino-acids polypeptide, expressed as GFP fusion (SGNAAVIKYEEKPPKPAFQNGSSGSFYLKPLVSRAHVHLMKTPPKGPSRKNLFTALNA; also: expressed as GFP fusion; listed as Homo sapiens)” the “factor of reduction of proliferation as compared to clone expressing GFP-ATIP3” value (MCF7 breast cancer cells) was 2 and the intracellular localization (microtubule cytoskeleton [1]) was “remains diffuse in the cytosol”.

B1: ATIP3BD: basic central domain of ATIP3, residues 410-874 of SEQ ID NO: 1, expressed as GFP fusion (protein, listed as Homo sapiens)
chain: GLTWDANDMVISTDKTMCMSTPVLEPTKVTFSVSPIEATEKCKKVEKGNRGLKNIPDSKEAPVNLCKPSLGKSTIKTNTPIGCKVRKTEIISYPRPNFKNVKAKVMSRAVLQPKDAALSKVTPRPQQTSASSPSSVNSRQQTVLSRTPRSDLNADKKAEILINKTHKQQFNKLITSQAVHVTTHSKNASHRVPRTTSAVKSNQEDVDKASSSNSACETGSVSALFQKIKGILPVKMESAECLEMTYVPNIDRISPEKKGEKENGTSMEKQELKQEIMNETFEYGSLFLGSASKTTTTSGRNISKPDSCGLRQIAAPKAKVGPPVSCLRRNSDNRNPSADRAVSPQRIRRVSSSGKPTSLKTAQSSWVNLPRPLPKSKASLKSPALRRTGSTPSIASTHSELSTYSNNSGNAAVIKYEEKPPKPAFQNGSSGSFYLKPLVSRAHVHLMKTPPKGPSRKNLFTALNA
modifications: GFP fusion; (1)..(409) acidic N-terminal region
B1 was tested, and the “co-sedimentation with stabilized microtubules” value (stabilized microtubules) was “co-sediments with stabilized microtubules”, the “cell proliferation / number of G418-resistant colonies” value [2] was “mimic the inhibitory effects of the entire ATIP3a and ATIP3b proteins” and the “localization of GFP fusion protein at the microtubule cytoskeleton” value (microtubule cytoskeleton [3]) was “localizes at the microtubule cytoskeleton”.
